Data on 2 molecules can be found in publication PMC9271601 (Structure (London, England : 1993), 2022).

Test [1] concerns the target H7 (SH13) HA probe (Influenza A virus A/Shanghai/02/2013 …, UniProt R4NN21, strain, biotin (biotin protein ligase, AviTag)). The test is described as follows: flow cytometry on cells. A general note: In flow cytometry, cells or beads pass a laser one at a time.
Test [2] deals with H9N2 A/Hong Kong/1073/99 hemagglutinin trimer, wild type (Influenza A virus A/Hong Kong/1073/99 …, UniProt Q9ICY5, strain). The test is described as follows: BLI.

B1: 1D12 B cell receptor on the donor's B cell (antibody, V domains shown)
VH: QLVQSGAEVKKPGASVKVSCKASGYTFTGYYLHWVRQAPGQGLEWMGRINPDTGGTNYAQKFQGRVSMTRDMSISTHYMELSRLTSDDTAVYYCATKRGAVTAMVYYYFYGMDVWGQGTTVTVSS
VL: DIVMTQSPLSLSVTPGEPASISCRSSHSLLHLNGYNYLDWYLQKPGQSPQLLIYLGSNRASGVPDRFSGSGSGTDFTLKISRVEAEDVGIYYCMQALRTPPGLTFGGGTKVDIK
Turning to B1, the binding result in test [1] is recorded as “binds”.

B2: 315–19-1D12 Fab (Fab, V domains shown)
VH: QLVQSGAEVKKPGASVKVSCKASGYTFTGYYLHWVRQAPGQGLEWMGRINPDTGGTNYAQKFQGRVSMTRDMSISTHYMELSRLTSDDTAVYYCATKRGAVTAMVYYYFYGMDVWGQGTTVTVSS
VL: DIVMTQSPLSLSVTPGEPASISCRSSHSLLHLNGYNYLDWYLQKPGQSPQLLIYLGSNRASGVPDRFSGSGSGTDFTLKISRVEAEDVGIYYCMQALRTPPGLTFGGGTKVDIK
Consider B2, for which, in test [2], the binding result is on record as “binds”.
